What was measured:
[1] = molecular target: HIV-1AD8 Env N332E (HIV-1 (strain AD8))
[2] = molecular target: HIV-1AD8 Env N332L (HIV-1 (strain AD8))
[3] = molecular target: HIV-1AD8 Env N332Y (HIV-1 (strain AD8))

Measured: neutralisation of pseudovirus infection of Cf2-Th/CD4+CCR5+ cells, IC50 (one of the three changes with the highest resistance to PGT121)

PGT121 (antibody)
< 1 µg/mL: all assays above

Source: paper PMC11005340
